Source: paper PMC3785480, “BB0347, from the Lyme Disease Spirochete Borrelia burgdorferi, Is Surface Exposed and Interacts with the CS1 Heparin-Binding Domain of Human Fibronectin” (PLoS ONE, 2013)

Molecular target: T1, recombinant BB0347 (Borrelia burgdorferi)
T1 construct: also called rBB0347; source: E. coli Rosetta(DE3)pLysS, pET200, purified (MagneHis nickel particles, dialysed into PBS)
Test: ELISA; FnHBD assay: coated plate treated with varying concentrations of rBB0347, 37°C, 1.5 h; detected with rabbit polyclonal anti-BB0347; KD = concentration of added protein at half-maximal binding, assuming saturation
Settings: both partners purified

B1: peptide fragment containing the CS1 heparin-binding domain (HBD) of human Fn (domain or fragment)
chain: AIPAPTDLKFTQVTPTSLSAQWTPPNVQLTGYRVRVTPKEKTGPMKEINLAPDSSSVVVSGLMVATKYEVSVYALKDTLTSRPAQGVVTTLENVSPPRRARVTDATETTITISWRTKTETITGFQVDAVPANGQTPIQRTIKPDVRSYTITGLQPGTDYKIYLYTLNDNARSSPVVIDASTAIDAPSNLRFLATTPNSLLVSWQPPRARITGYIIKYEKPGSPPREVVPRPRPGVTEATITGLEPGTEYTIYVIALKNNQKSEPLIGRKKT
Kd: 180 ± 14 nM
